Reference: patent US20220411514A1, “ANTI-GAL3 ANTIBODIES AND METHODS OF USE FOR INSULIN RESISTANCE” (TrueBinding, Inc., priority 2021, published 2022)
Positions count from the first letter of the chain named. Blank lines part the entries; values can stand above or below the molecule they belong to.

Tests used:
human Gal3 = molecular target: T1, human Gal3 (Homo sapiens, UniProt P17931); test: Epitope binning, sandwich format, SPR Carterra LSA (Example 8); format: binding
T1 construct: 6xHis (linker-spaced) (C); purchased AcroBio (Acro Biosystems) GA3-H5129
Procedure: The epitope binning assay was done in a sandwich format on the high-throughput SPR-based Carterra LSA unit (CarterraBio, Salt Lake City, Utah). First, the purified antibodies were diluted to 10 μg/ml concentration in 10 mM NaOAc (pH 5.0) and then were covalently coupled via amine group to HC200M chip activated by EDC and S-NHS to immobilize antibodies to different positions of a 384-spot array. One hundred thirty-eight binning cycles were run on the array of immobilized antibodies. In each cycle, first, human Gal3 (AcroBio GA3-H5129) was injected over the entire array to bind to different antibodies (primary antibody), followed by one antibody (secondary antibody) selected among the panel of 150 anti-GAL3 antibodies tested. At the end of each cycle, the array was regenerated by 10 mM Glycine (pH 2.0) to remove bound antigen and secondary antibody from the array. The data analysis was done using the Epitope software by CarterraBio.

Human Gal3 peptides = molecular target: T2, Human Gal3 peptides (Homo sapiens, UniProt P17931); test: Gal3 peptide binding ELISA (Example 8); details: antibody 5 μg/mL
T2 construct: purchased LifeTein custom order
Procedure: Gal3 peptide binding activity of additional exemplary anti-Gal3 antibodies was assessed with the same peptides as described in FIG. 18 (SEQ ID NOs: 3-26). Human Gal3 peptides (LifeTein, custom order) and human Gal3 proteins (R&D Systems, 8259-GA; TrueBinding, QCB200349) were diluted in PBS (Corning, 21-030-CM) to concentrations of at least 100 μg/mL (peptides) or 1 μg/mL (proteins), and added to the wells of several 96-well ELISA plates (Thermo Fisher, 44-2404-21). After incubating the plates at 4° C. overnight, the plates were washed three times with PBST (PBS with 0.05% Tween 20 [VWR, 0777]). The plates were then blocked for an hour with 2% BSA (EMD Millipore, 126609) in PBST at room temperature with gentle rocking. Thereafter, the 2% BSA in PBST was discarded and Gal3-binding antibodies (reformatted hIgG4 [S228P]) were diluted in 2% BSA in PBST to concentrations of 5 μg/mL and added to the wells. The plates were incubated for an hour at room temperature with gentle rocking and then washed three times with PBST. Afterwards, Peroxidase AffiniPure F(ab′)2 Fragment Goat Anti-Human IgG (H+L) polyclonal antibody (Jackson ImmunoResearch, 109-036-003), was diluted in 2% BSA in PBST (1:4000) and added to the wells. The plates were incubated for 1 hour at room temperature with gentle rocking and then washed three times with PBST. TMB substrate (Thermo Scientific, 34029) was then added to each well. The reaction was stopped with 1M HCl (JT Baker, 5620-02) and read using a plate reader (Molecular Devices) at absorbance of 450 nm.

[1] = tested on: GLUT4 translocation in L6 GLUT4myc myoblasts; test: Insulin-stimulated GLUT4 translocation with Gal3 and anti-Gal3 antibody; format: cell-based, rat; details: 30 μg/mL Gal3 pre-incubated with 60 μg/mL antibody, 100 nM insulin
Procedure: Rat L6 GLUT4myc myoblasts (Kerafast #ESK202-FP) express a Myc-tagged GLUT4 that can be detected with an anti-Myc antibody. These cells were grown in a 48-well plate in MEM u growth media (Gibco, #12-571-063)+10% fetal bovine serum (FBS; Corning #35-016-CV) until 90-95% confluence was reached. Cells were then washed in PBS and serum starved for 2 hours in MEM u growth media without FBS. Thirty (30) μg/mL recombinant human Gal3 (TrueBinding QCB200347) was pre-incubated with 60 μg/mL anti-Gal3 antibodies for 30 minutes before being added to the serum-starved cells for 1 hour at 37° C. At the end of incubation, half of the cells were treated with 100 nM insulin (Sigma-Aldrich #I5523-50MG) for 20 minutes while the other half acted as basal controls. After 20 minutes, cells were washed quickly with ice cold PBS twice, then incubated with 4% paraformaldehyde (Boster Bio #AR1068) for 10 minutes on ice followed by 10 minutes at room temperature. The cells were washed three times with PBS, then blocked with 0.5 mL 5% goat serum (Vector Laboratories #101098-382) in PBS for 15 minutes. After the blocking agent was aspirated from the cells, 1 μg/ml anti-Myc polyclonal antibody (Sigma-Aldrich #C-3956) in 5% goat serum was added for 1 hour. […] Primary antibody was aspirated away, and then cells washed 5 times with PBS. Next, cells (including background controls) were incubated with 1:1000 goat anti rabbit antibody secondary antibody (Abcam #Ab97051) in 5% Goat serum for 30 minutes at room temperature. After washing, cells were incubated with 400 μL of TMB (Thermo Scientific #PI34029) for 5 minutes, then 200 μL of 1N HCL (Avantor Performance #JT5620-2) was added to stop the reaction. 100 μL of the sample was transferred to a 96 well plate with duplicates transferred for each condition. Samples were read at 450 nm on a SpectraMax plate reader. […] The fold changes were plotted on GraphPad Prism and presented as mean (SEM) of the technical replicates. Statistical significance was determined using unpaired T-tests comparing samples treated with Gal3 and insulin with all other conditions.

T1 sequence (P17931 whole entry): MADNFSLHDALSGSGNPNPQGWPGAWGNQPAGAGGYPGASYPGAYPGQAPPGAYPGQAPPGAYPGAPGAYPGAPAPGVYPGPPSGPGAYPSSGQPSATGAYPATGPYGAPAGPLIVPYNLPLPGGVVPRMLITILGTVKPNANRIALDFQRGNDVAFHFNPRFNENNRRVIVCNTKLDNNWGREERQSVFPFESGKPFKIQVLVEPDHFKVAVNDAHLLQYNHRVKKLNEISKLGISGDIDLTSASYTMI

- epitope bin (mutual competitive binding for Gal3) (human Gal3): CRD
- binding to Gal3 peptide 6 (SEQ ID NO: 8) (Human Gal3 peptides): bound
B1: 847.28D1: anti-Gal3 antibody (antibody, V domains shown)
VH: QVQLVETGPGLVAPSQSLSITCTVSGFSLTSYGVHWIRQSPGKGLEWLGTIWAGGSTDYNSPLMSRLSISKDNSKNQVFLKMNSLQIDDTAIYYCASPPSGYDYDVFASWGQGTLVTVSA
VL: DIRMTQSPASLSASVGETVTITCRASGNIHNYLAWYHQKQGKSPQLLVYNVKTLADGVPSRFSGSGSGTQFSLKINSLQPEDFGTYYCQHFWSIFPTFGGGTKLEIK

- epitope bin (mutual competitive binding for Gal3) (human Gal3): CRD
- binding to Gal3 peptide 17 (SEQ ID NO: 19) (Human Gal3 peptides): bound
B2: 847.3B3: anti-Gal3 antibody (antibody, V domains shown)
VH: B1 VH with V5K, T7S, S40P, T50G, S70T, N76S, I87S, I92M, S109Y
VL: B1 VL with R3L, H37Q, N50S, V51A, N76D, I94L

- epitope bin (mutual competitive binding for Gal3) (human Gal3): 11
- binding to Gal3 peptide 1 (SEQ ID NO: 3) (Human Gal3 peptides): bound
- binding to Gal3 peptide 17 (SEQ ID NO: 19) (Human Gal3 peptides): bound
B3: 849.1D2: anti-Gal3 antibody (antibody, V domains shown)
VH: QVQLKESGPVLVAPSQSLSITCTVSGFSLSSYGVHWVRQPPGKGLEWLGVIWAGGSTDYDSALMSRLSISKDNSKSQVFLKMDSLQTDDTAMYYCAKPPYDYDGAWFAYWGQGTLVTVSA
VL: DVVMTQTPKFLLVSAGDRVTITCKASQSVSSDVAWYQQKPGQSPKLLIYFASNRYTGVPDRFTGSGYGTDFTFTISTVQAEDLAVYFCQHNYISPFTFGGGTKLEIK

B4: 2D10-hVH4-HVL2: anti-Gal3 antibody, VH SEQ ID NO: 807, VL SEQ ID NO: 822 (antibody, V domains shown)
VH: QVQLVQSGAEVKKPGASVKVSCKASGYTFTDYYINWVRQAPGQRLEWMGWIYPGSQDTKYNEKFQGRVTLTVDTSASTAYMELSSLRSEDTAVYFCANYFGSSGWFFDVWGQGTMVTVSS
VL: DIVMTQSPLSLPVTPGEPASISCRSSKSLLHSDGITYLYWYLQKPGQSPQLLIYRMSNLASGVPDRFSGSGSGTDFTLKISRVEAEDVGVYYCAQMIEFPLTFGQGTKLEIK
modifications: VH-81 Peptide Sequence; VL-79 Peptide Sequence
- effect on Gal3 block of insulin-stimulated GLUT4 translocation [1]: reduce the ability of Gal3 to block GLUT4 translocation

B5: 2D10-hVH3-HVL1: anti-Gal3 antibody, VH SEQ ID NO: 810, VL SEQ ID NO: 825 (antibody, V domains shown)
VH: B4 VH with N61S, E62Q, L70I, F95Y
VL: B4 VL with L59R
modifications: VH-84 Peptide Sequence; VL-82 Peptide Sequence
- effect on Gal3 block of insulin-stimulated GLUT4 translocation [1]: reduce the ability of Gal3 to block GLUT4 translocation

B6: 2D10-hVH4-HVL4: anti-Gal3 antibody, VH SEQ ID NO: 809, VL SEQ ID NO: 824 (antibody, V domains shown)
VH: B4 VH
VL: B4 VL with P15L, E17Q, L42Q, K44R, A60D
modifications: VH-83 Peptide Sequence; VL-81 Peptide Sequence
- effect on Gal3 block of insulin-stimulated GLUT4 translocation [1]: reduce the ability of Gal3 to block GLUT4 translocation

B7: 2D10-hVH3-HVL3: anti-Gal3 antibody, VH SEQ ID NO: 812, VL SEQ ID NO: 827 (antibody, V domains shown)
VH: B4 VH with N61S, E62Q, L70I, F95Y
VL: B4 VL with I2V, P15L, E17Q, L42Q, K44R, Q50R, L59R, A60D
modifications: VH-86 Peptide Sequence; VL-84 Peptide Sequence
- effect on Gal3 block of insulin-stimulated GLUT4 translocation [1]: reduce the ability of Gal3 to block GLUT4 translocation

B8: 2D10-hVH3-HVL2: anti-Gal3 antibody, VH SEQ ID NO: 811, VL SEQ ID NO: 826 (antibody, V domains shown)
VH: B4 VH with N61S, E62Q, L70I, F95Y
VL: B4 VL
modifications: VH-85 Peptide Sequence; VL-83 Peptide Sequence
- effect on Gal3 block of insulin-stimulated GLUT4 translocation [1]: reduce the ability of Gal3 to block GLUT4 translocation

B9: 2D10-hVH4-HVL3: anti-Gal3 antibody, VH SEQ ID NO: 808, VL SEQ ID NO: 823 (antibody, V domains shown)
VH: B4 VH
VL: B4 VL with I2V, P15L, E17Q, L42Q, K44R, Q50R, L59R, A60D
modifications: VH-82 Peptide Sequence; VL-80 Peptide Sequence
- effect on Gal3 block of insulin-stimulated GLUT4 translocation [1]: reduce the ability of Gal3 to block GLUT4 translocation

B10: 2D10-hVH3-HVL4: anti-Gal3 antibody, VH SEQ ID NO: 813, VL SEQ ID NO: 828 (antibody, V domains shown)
VH: B4 VH with N61S, E62Q, L70I, F95Y
VL: B4 VL with P15L, E17Q, L42Q, K44R, A60D
modifications: VH-87 Peptide Sequence; VL-85 Peptide Sequence
- effect on Gal3 block of insulin-stimulated GLUT4 translocation [1]: reduce the ability of Gal3 to block GLUT4 translocation

- epitope bin (mutual competitive binding for Gal3) (human Gal3): CRD
- binding to Gal3 peptide 13 (SEQ ID NO: 15) (Human Gal3 peptides): bound
- binding to Gal3 peptide 17 (SEQ ID NO: 19) (Human Gal3 peptides): bound
B11: 847.13E2-mH0mL1: anti-Gal3 antibody (antibody, V domains shown)
VH: EVQLQQSGPELVKPGASVKVSCKASGYSFTDYNMYWVMQSHGKSLEWIGYIDPYNDATSYSQKFTGKATLTVDKSSSTAFMHLNSLTSEDSAVYYCARWGRYEYYAMDYWGQGTSVTVSS
VL: DIVMTQSPASLPVSLGQRATISCRASKSVTTSAYSYIHWYQQRPGQPPKLLIYLASNLESGVPARFSGSGSGTDFTLNIHPVEEEDAATYYCQHNRELPPTFGGGTKLEIN

- epitope bin (mutual competitive binding for Gal3) (human Gal3): CRD
- binding to Gal3 peptide 13 (SEQ ID NO: 15) (Human Gal3 peptides): bound
- binding to Gal3 peptide 17 (SEQ ID NO: 19) (Human Gal3 peptides): bound
B12: 847.13E2-mH0mL2: anti-Gal3 antibody (antibody, V domains shown)
VH: B11 VH
VL: DIVLTQSPATLSVTPGDSVSFSCRASQIINNNLHWYQQKSHESPRLLIRYTSQSISGIPSRFSGSGSGTDFTLSINNVETEDFGMYFCQQTNSWPLTFGAGTKLELK

- epitope bin (mutual competitive binding for Gal3) (human Gal3): CRD
- binding to Gal3 peptide 13 (SEQ ID NO: 15) (Human Gal3 peptides): bound
- binding to Gal3 peptide 17 (SEQ ID NO: 19) (Human Gal3 peptides): bound
B13: 847.23F11: anti-Gal3 antibody (antibody, V domains shown)
VH: QVQLQQSGAELVRPGASVKLSCKASGYTFTSSWMNWVKQRPGQGLDWIGMIDPSDSETHYNQMFKDKATLTVDKSSNTAYMQLSRLTSEDSAVYYCVNSNYESGYWGQGTTLTVSS
VL: DILMTQSHKFMSTSVGDRVSITCKASQDVSSVVVWYQQKPGQSPKQLIYWASTRHTGVPDRFTGSGSGTDYTLTISSVQAEDLALYYCQQHYSTPYTFGGGTKLEIK
